Results published in US5498695A, “Paranitroaniline peptides” (Pfizer Inc., priority 1994, dated 1996).

How the values were obtained:
Test in all cases: Spectrophotometric hydrolysis of pNA substrates by immobilized ICE (release of pNA at 405 nM)
Assay type in all cases: biochemical, Human
Conditions in all cases: other: pNA substrate 0.01 to 1.5 mM, 25° C., pH 7
[1] = substrate: CC(C)[C@H](NC(=O)OCc1ccccc1)C(=O)N[C@@H](C)C(=O)N[C@@H](CC(=O)O)C(=O)Nc1ccc([N+](=O)[O-])cc1
Description: (§1) Other procedures for purification and assaying ICE are disclosed in Black et al., FEBS Letters, 247, 386-390 (1989), and Thornberry et al., Nature, 356, 768-774 (1992). Cell Culture And Lysates.
(§2) Human monocyte cell line, THP-1 (ATCC-TIB 202) was grown in RPMI media 1640 (Gibco BRL Gaithersburg, Md. 20877) with 10% fetal bovine serum, harvested by centrifugation, washed twice in Dulbecco's PBS […] without Ca^++, and resuspended in 10 mM Tris-HCl pH 8 buffer containing 5 mM DTT (dithiothreitol), 1 mM EDTA (ethylene diamine tetraacetic acid), 1 mM PMSF (phenylmethyl sulfonylfluoride), 1 μg/ml pepstatin, and 1 μg/ml leupeptin at 1-3×10^8 cells per ml. Cells were frozen at -70° C. until use and then lysed by thawing. Lysates were cleared by centrifugation at 20,000× g for 1 hour followed by 120,000×g for 1 hour.
(§3) ICE activity was purified from THP-1 cell lysates by three chromatographic steps: (A) Thp-1 cell lysate (1.5L) was desalted by G25 column chromatography (Pharmacia LKB Biotechnology) (B) The protein fraction was then subjected to ion-exchange chromatography on Q-Sepharose Fast Flow (Pharmacia LKB Biotechnology) in buffer A (20 mM Tris pH 7.8 containing 5 mM EDTA, 1 mM PMSF, 1 μg/ml pepstatin, and 1 μg/ml leupeptin). ICE activity was eluted with a gradient of NaCl in buffer A. (C) The active fractions from B were desalted, concentrated and subjected to MonoQ (trademark) (Pharmacia LKB Biotechnology) column chromatography. ICE activity was then eluted in a NaCl gradient. Active ICE fractions from C were pooled and used to bind immunoaffinity beads containing covalently linked antibodies raised against the first […] N-terminal residues of ICE (NH2 -Asp-Pro-Ala-Met-Pro-Thr-Ser-Ser-Val-Lys-Leu-Cys(SEQ ID NO:2)-CONH2).
(§4) Immobilization of ICE to immunoaffinity beads was done following standard protocols. Briefly, IgG fractions were covalently linked to protein A beads as described by the manufacturers (Antibody Orientation Kit Protein A Agarose supplied by Affinica (trademark) (Product manufactured by Schleicher and Schuell)). Protein A beads were pelleted by centrifugation and washed with 5 times their volume with Affinica (trademark) supplied "binding buffer". IgG, appropriately diluted in "binding buffer," was then bound to the beads. The beads were then washed and the bound IgG was covalently linked with dimethyl suberimidate. After the reaction was stopped with the "quenching buffer" supplied by Affinica (trademark), the immunoaffinity beads were washed and stored in PBS buffer containing 0.02% NAN3. […]
(§5) The enzymatic reaction was monitored spectrophotometrically at […]. The increase in absorbance at this wave length resulted from the release of pNA chromophore after hydrolysis by ICE of the peptidic-pNA substrate. […]

[2] = substrate: CC(=O)N[C@@H](Cc1ccc(O)cc1)C(=O)N[C@H](C(=O)N[C@@H](C)C(=O)N[C@@H](CC(=O)O)C(=O)Nc1ccc([N+](=O)[O-])cc1)C(C)C
Description: as §1, §2, §3, §4, §5

[3] = substrate: CC(=O)N[C@H](C(=O)N[C@@H](C)C(=O)N[C@@H](CC(=O)O)C(=O)Nc1ccc([N+](=O)[O-])cc1)C(C)C
Description: as §1, §2, §3, §4, §5

[4] = substrate: CC(C)[C@H](NC(=O)OC(C)(C)C)C(=O)N[C@@H](C)C(=O)N[C@@H](CC(=O)O)C(=O)Nc1ccc([N+](=O)[O-])cc1
Description: as §1, §2, §3, §4, §5

B1: interleukin 1β converting enzyme (ICE) (Homo sapiens) (protein)
chain 1: NPAMPTSSGSEGNVKLCSLEEAQRIWKQKSAEIYPIMDKSSRTRLALIICNEEFDSIPRRTGAEVDITGMTMLLQNLGYSVDVKKNLTASDMTTELEAFAHRPEHKTSDSTFLVFMSHGIREGICGKKHSEQVPDILQLNAIFNMLNTKNCPSLKDKPKVIIIQACRGDSPGVVWFKD
chain 2: AIKKAHIEKDFIAFCSSTPDNVSWRHPTMGSVFIGRLIEHMQEYACSCDVEEIFRKVRFSFEQPDGRAQMPTTERVTLTRCFYLFPGH
notes: ICE activity was purified from THP-1 cell lysates by three chromatographic steps; endogenous in cells; host or cells: THP-1 (ATCC-TIB 202) human monocyte cell line; Lysate was purified over G25, Q-Sepharose and MonoQ, then captured on protein A agarose beads carrying anti-ICE antibody
Which results are given for B1?
Km [1]: 97.9 µM; Km [2]: 43.8 µM; Km [3]: 447 µM; Km [4]: 443 µM
